According to article PMC3317979:
pKd: −log10 of the molar value.

Tests used:
[1] = system: 933W repressor (cI) (bacteriophage 933W (lambdoid prophage of E. coli O157:H7 EDL933)); test: EMSA
[2] = system: 933W repressor (cI) (bacteriophage 933W (lambdoid prophage of E. coli O157:H7 EDL933)); test: EMSA (direct and competition)
[3] = system: 933W repressor K46A (bacteriophage 933W (lambdoid prophage of E. coli O157:H7 EDL933)); test: EMSA
[4] = system: 933W repressor S41A (bacteriophage 933W (lambdoid prophage of E. coli O157:H7 EDL933)); test: EMSA
[5] = system: 933W repressor (cI) (bacteriophage 933W (lambdoid prophage of E. coli O157:H7 EDL933)); test: competition EMSA
[6] = scale: fold affinity vs S41A on consensus

Substance: 933W OR1
- binding signal (fold higher affinity than consensus) [1]: 10

Substance: 933W consensus operator
- pKd [2]: 8.32
- pKd [3]: 5.21
- binding signal ([4]; scale: fold lower affinity than wild-type repressor): > 10

Substance: consensus 1A (symmetric C-G to A-T)
- binding signal (fold change in affinity vs consensus) [5]: < 2

Substance: consensus 2A (symmetric, G-C to A-T)
- binding signal [4, 6]: 1
- binding signal (fold lower affinity than consensus) [5]: > 6

Substance: consensus 2T (symmetric, G-C to T-A)
- binding signal [4, 6]: 1
- binding signal (fold lower affinity than consensus) [5]: > 6

Substance: consensus 3C (symmetric A-T to C-G)
- binding signal (fold lower affinity than consensus) [5]: > 6

Substance: consensus 3G (symmetric A-T to G-C)
- binding signal (fold lower affinity than consensus) [5]: 2

Substance: consensus 3T (symmetric A-T to T-A)
- binding signal (fold higher affinity than consensus) [5]: > 3

Substance: consensus 4 G-5meC in one half-site
- binding signal (fold affinity vs consensus (identical)) ([1]; 5-methylcytosine paired with G at position 4): 1

Substance: consensus 4 G-C in one half-site
- binding signal (fold lower affinity than consensus) [1]: > 5

Substance: consensus 5 C-C7G in one half-site
- binding signal (fold lower affinity than consensus) ([1]; 7-deazaguanine replaces G at position 5): > 5

Substance: consensus 6C (symmetric T-A to C-G)
- binding signal (fold higher affinity than consensus) [5]: > 2.5

Substance: consensus 7'A (C-G to A-T at 7' only)
- binding signal (fold higher affinity than consensus) [5]: > 4

Substance: consensus 8G (central A-T to G-C)
- binding signal (fold lower affinity than consensus) [5]: 3

Substance: nonspecific DNA (NS)
- pKd [3]: 5.21
- pKd [5]: 5.21
